The source of these data is patent publication US20260035468A1 (INSTITUT NATIONAL DE LA SANT ET DE LA RECHERCHE M DICALE, published 2026).

This test deals with T1, β8 chain of αvβ8 integrin (Itgβ8) expressed on human tumor Treg cells (human, UniProt P26012 43-769; P06756 31-1048).
T1 construct: whole, on cells; also called Itgb8 chain on human Treg cells; human Itgβ8
As to the kind of experiment: staining of cells of one fresh human colonic tumor (data not shown).

T1 sequence (P26012 43-769, chain 1 of 2): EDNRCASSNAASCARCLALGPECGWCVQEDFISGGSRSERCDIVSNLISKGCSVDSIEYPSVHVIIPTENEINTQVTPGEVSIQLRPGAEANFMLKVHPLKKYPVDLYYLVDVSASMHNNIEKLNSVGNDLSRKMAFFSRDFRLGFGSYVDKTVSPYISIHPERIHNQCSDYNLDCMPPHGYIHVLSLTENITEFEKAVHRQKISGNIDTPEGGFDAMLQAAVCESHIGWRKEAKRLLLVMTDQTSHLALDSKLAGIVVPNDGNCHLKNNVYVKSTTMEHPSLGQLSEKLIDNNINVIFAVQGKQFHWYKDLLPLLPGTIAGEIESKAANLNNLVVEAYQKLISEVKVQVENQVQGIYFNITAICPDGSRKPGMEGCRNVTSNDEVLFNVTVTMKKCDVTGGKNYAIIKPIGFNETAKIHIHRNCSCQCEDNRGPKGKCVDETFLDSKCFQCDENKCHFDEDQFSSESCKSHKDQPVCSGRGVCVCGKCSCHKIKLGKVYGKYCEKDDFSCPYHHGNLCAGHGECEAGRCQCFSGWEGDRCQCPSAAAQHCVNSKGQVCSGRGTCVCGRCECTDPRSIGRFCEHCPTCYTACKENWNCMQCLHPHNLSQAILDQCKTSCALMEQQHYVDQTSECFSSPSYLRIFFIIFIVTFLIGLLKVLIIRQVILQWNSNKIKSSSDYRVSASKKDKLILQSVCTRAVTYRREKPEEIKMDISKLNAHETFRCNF
T1 sequence (P06756 31-1048, chain 2 of 2): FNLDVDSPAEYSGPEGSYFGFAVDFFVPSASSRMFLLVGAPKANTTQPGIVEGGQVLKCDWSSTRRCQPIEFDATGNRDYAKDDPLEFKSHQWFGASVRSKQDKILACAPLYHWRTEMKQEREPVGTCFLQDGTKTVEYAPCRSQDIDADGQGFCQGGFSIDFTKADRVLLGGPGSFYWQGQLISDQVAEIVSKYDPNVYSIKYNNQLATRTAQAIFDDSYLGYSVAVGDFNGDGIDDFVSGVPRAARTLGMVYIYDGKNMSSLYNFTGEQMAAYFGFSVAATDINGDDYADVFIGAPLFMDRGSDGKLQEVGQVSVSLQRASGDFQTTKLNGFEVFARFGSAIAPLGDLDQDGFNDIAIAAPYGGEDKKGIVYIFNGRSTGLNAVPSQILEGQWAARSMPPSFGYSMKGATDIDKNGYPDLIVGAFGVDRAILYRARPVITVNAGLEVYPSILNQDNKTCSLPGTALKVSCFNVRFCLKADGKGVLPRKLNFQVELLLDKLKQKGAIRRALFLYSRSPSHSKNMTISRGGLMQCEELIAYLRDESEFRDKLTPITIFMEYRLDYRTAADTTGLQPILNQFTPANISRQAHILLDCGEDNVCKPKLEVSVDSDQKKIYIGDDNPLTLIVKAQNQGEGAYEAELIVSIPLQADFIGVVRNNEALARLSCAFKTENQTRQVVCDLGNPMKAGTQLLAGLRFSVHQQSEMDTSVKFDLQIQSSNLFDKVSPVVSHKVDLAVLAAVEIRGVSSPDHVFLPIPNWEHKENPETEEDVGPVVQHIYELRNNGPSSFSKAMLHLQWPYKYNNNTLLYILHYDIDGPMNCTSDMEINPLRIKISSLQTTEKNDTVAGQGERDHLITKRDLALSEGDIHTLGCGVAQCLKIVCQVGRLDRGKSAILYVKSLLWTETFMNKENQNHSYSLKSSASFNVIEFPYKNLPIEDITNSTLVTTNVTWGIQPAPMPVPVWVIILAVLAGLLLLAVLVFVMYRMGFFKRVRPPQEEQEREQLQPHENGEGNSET

B1: Mab 9B2 (antibody, V domains shown)
VH: QVQLQQSGAELAKPGASVKLSCKASGYTFTRYWMHWVKQRPGQGLEWIGHINPSSGYTKYNQKFKDKATLTADKSSSTAYMQLSSLTYEDSAVYYCAREVYYYGSSYGDFDYWGQGTTLTVSS
VL: QIVLTQSPAIMSASPGEKVTISCSASSSVSYMYWYQQKPGSSPKPWIYRTSNLASGVPARFSGSGSGTSYSLTISSMEAEDAATYYCQQYHSYPLTFGAGTKLELK
notes: Mouse hybridoma antibody tested as clone supernatant; also called 9B2 mAb; clone 1
Regarding B1, the binding result is “binds”.

B2: Mab 1G10G4 (antibody, V domains shown)
VH: QVQLQQSGAELARPGASVKMSCKASGYTFTSYTMHWVKQRPGQGLEWIGYINPSSGYTKYNQKFKDKATLTADKSSSTAYMQLSSLTSEDSAVYYCARAEGLRAWFAYWGQGTLVTVSA
VL: DIVMTQSQKFMSTSVGDRVSVTCKASQNVGTNVAWYQQKPGQSPKALIYSASYRYSGVPDHFTGSGSGTDFTLTIINVQSEDLAEYFCQQYNSYPYTFGGGTKLEIK
notes: Mouse hybridoma antibody tested as clone supernatant; also called 1G10G4 mAb; clone 3
Consider B2, for which the binding result is listed as “binds”.
